For this assay, the target named is LDLR expressed in HepG2 cells (UniProt P01130). As to the kind of experiment: cell-based or functional assay.
LDLR expressed in HepG2 cells, sequence (P01130 22-860 limits assumed): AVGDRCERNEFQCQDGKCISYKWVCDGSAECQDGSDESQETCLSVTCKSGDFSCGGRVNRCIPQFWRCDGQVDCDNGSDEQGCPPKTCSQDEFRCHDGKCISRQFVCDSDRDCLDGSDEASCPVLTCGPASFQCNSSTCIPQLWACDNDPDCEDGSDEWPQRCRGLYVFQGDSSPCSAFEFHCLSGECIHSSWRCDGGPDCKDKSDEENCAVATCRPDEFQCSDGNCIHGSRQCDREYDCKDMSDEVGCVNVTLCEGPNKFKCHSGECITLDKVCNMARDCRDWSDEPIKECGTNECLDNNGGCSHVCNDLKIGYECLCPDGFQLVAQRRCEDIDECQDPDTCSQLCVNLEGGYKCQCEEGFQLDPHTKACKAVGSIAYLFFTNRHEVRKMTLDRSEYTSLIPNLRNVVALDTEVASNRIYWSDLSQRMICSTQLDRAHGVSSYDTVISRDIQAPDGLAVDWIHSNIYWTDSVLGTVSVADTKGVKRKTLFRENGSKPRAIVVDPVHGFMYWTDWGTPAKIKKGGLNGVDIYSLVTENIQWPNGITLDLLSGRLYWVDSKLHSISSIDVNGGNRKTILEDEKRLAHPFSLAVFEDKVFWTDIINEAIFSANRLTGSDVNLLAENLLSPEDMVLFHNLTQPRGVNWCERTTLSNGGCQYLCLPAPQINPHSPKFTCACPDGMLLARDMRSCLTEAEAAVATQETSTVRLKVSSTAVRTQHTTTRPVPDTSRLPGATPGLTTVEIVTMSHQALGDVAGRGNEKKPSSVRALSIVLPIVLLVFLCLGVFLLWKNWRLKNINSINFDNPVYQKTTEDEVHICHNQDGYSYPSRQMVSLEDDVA

In the case of “PCSK9 Ag (human PCSK9 protein, Acro Cat No: PC9-H5223) (from UniProt Q8NBP7 31-692)”, the LDL uptake by HepG2 cells, fluorescence value of LDL BODIPY (485 Ex/535 Em) was found to be 80.

The values above are taken from patent US20230242673A1.
